Like-named read-outs stand apart in the source and are kept apart here. One block for each binder: values may come before it. Non-standard residues stand in square brackets, D forms with d. No end group written: not given here. β3hW = N[C@H](CC(=O)O)Cc1c[nH]c2ccccc12; β3hE = N[C@@H](CCC(=O)O)CC(=O)O; β3hF = N[C@H](CC(=O)O)Cc1ccccc1; β3hK = NCCCC[C@H](N)CC(=O)O; β3hM = CSCC[C@H](N)CC(=O)O; β3hD = NC(CC(=O)O)CC(=O)O
How the values were obtained:
[1] = biological target: T1, human parathyroid hormone receptor 1, wild-type (hPTHR-1) (human, UniProt Q03431 27-593); test: cell-based or functional assay
T1 sequence (looked up): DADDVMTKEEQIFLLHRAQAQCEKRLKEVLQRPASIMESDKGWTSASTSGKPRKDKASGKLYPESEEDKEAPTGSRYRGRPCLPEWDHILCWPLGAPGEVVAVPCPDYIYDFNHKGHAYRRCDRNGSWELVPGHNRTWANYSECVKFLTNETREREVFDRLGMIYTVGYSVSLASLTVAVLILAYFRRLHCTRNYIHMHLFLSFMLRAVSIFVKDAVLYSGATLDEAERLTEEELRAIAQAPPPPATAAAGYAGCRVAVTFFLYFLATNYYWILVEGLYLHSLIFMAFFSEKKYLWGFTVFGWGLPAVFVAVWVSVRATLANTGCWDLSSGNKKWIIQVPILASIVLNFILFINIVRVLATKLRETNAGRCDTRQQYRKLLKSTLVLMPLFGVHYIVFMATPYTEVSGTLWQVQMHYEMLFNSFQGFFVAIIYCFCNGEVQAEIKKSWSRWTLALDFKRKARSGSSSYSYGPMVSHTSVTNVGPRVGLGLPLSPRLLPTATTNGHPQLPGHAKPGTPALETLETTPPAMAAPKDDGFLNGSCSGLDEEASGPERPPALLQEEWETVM

[2] = biological target: T2, rat parathyroid hormone receptor 1, wild-type (rPTHR-1) (rat, UniProt P25961 27-591); test: cell-based or functional assay
T2 sequence (looked up): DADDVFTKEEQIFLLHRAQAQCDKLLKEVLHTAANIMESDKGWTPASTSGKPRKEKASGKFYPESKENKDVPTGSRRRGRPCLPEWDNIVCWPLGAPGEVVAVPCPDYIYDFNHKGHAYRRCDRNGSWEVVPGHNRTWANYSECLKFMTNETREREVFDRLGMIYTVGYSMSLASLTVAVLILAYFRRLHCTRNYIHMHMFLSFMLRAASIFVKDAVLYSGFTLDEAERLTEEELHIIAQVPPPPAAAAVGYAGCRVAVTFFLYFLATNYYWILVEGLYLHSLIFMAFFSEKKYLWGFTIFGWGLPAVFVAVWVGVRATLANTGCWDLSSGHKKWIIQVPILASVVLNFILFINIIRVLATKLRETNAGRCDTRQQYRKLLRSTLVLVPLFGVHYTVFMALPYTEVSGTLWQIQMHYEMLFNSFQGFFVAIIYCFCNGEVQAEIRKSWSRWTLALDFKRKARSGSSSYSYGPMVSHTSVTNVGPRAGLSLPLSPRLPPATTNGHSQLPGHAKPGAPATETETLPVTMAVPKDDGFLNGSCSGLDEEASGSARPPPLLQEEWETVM

[3] = biological target: T1, human parathyroid hormone receptor 1, …; test: cell-based or functional assay; remark: listed apart in the source
[4] = biological target: T2, rat parathyroid hormone receptor 1, …; test: cell-based or functional assay; remark: listed apart in the source
[5] = biological target: T2, rat parathyroid hormone receptor 1, …; test: cell-based or functional assay; parameters: AUC-on / AUC-washout: unit not given beside the values
[6] = biological target: T1, human parathyroid hormone receptor 1, …; test: R0 state; 125I-PTH(1-34) displacement; COS-7 membranes, hPTHR-1, GTPγS
Source text: (§1) ^aValues are means of n ≧4 experiments, each performed in duplicate.

[7] = biological target: T2, rat parathyroid hormone receptor 1, …; test: R0 state; 125I-PTH(1-34) displacement; COS-7 membranes, rPTHR-1, GTPγS
Source text: (§2) Binding inhibition constants are expressed as the -log (IC50) and corresponding nanoMolar (nM) values. Values are means (±SEM) of the number of experiments shown (n), each performed in duplicate.

[8] = biological target: T1, human parathyroid hormone receptor 1, …; test: R0 state; 125I-PTH(1-34) displacement; COS-7 membranes, hPTHR-1, GTPγS; remark: listed apart in the source
Source text: (§3) FIGS. 6A, 6B, 6C, 6D, 6E, and 6F constitute a series of graphs depicting binding of various analogs to the R⁰ and RG forms of human PTHR-1 (hPTHR-1). […] Data are means (±SEM) of n≧4 experiments, each performed in duplicate.

[9] = biological target: T2, rat parathyroid hormone receptor 1, …; test: R0 state; 125I-PTH(1-34) displacement; COS-7 membranes, rPTHR-1, GTPγS; remark: listed apart in the source
Source text: as §2

[10] = biological target: T1, human parathyroid hormone receptor 1, …; test: RG state; 125I-M-PTH(1-15) displacement; COS-7 membranes, hPTHR-1 + Gαs mutant
Source text: as §1

[11] = biological target: T2, rat parathyroid hormone receptor 1, …; test: RG state; 125I-M-PTH(1-15) displacement; COS-7 membranes, rPTHR-1 + Gαs mutant
Source text: as §2

[12] = biological target: T1, human parathyroid hormone receptor 1, …; test: RG state; 125I-M-PTH(1-15) displacement; COS-7 membranes, hPTHR-1 + Gαs mutant; remark: listed apart in the source
Source text: as §3

[13] = biological target: T2, rat parathyroid hormone receptor 1, …; test: RG state; 125I-M-PTH(1-15) displacement; COS-7 membranes, rPTHR-1 + Gαs mutant; remark: listed apart in the source
Source text: as §2

[14] = biological target: T3, PTHR-1 (species and cells not stated for the assay) (Homo sapiens (Human), UniProt Q03431 27-593); test: cell-based or functional assay
T3 sequence: T1 sequence (looked up)

[15] = biological target: T3, PTHR-1 (species and cells not stated …); test: cell-based or functional assay; remark: listed apart in the source
[16] = biological target: T1, human parathyroid hormone receptor 1, …; test: ratio of R0 IC50 to RG IC50, hPTHR-1
[17] = biological target: T2, rat parathyroid hormone receptor 1, …; test: ratio of R0 IC50 to RG IC50, rPTHR-1
Source text: as §2

cAMP EC50 [1]: 0.11 nM | cAMP Max [1]: 0.98 relative to PTH(1-34) | cAMP EC50 [2]: 1.45 nM | cAMP Max [2]: 0.78 relative to PTH(1-34) | cAMP EC50 [3]: 0.11 nM | cAMP Max [3]: 212 cps × 10^-3 | cAMP pEC50 [3]: 9.97 | cAMP EC50 [4]: 1.45 nM | cAMP Max [4]: 51 cps × 10-3 | cAMP pEC50 [4]: 8.84 | AUC-on [5]: 130000 | AUC-washout [5]: 84000 | IC50 [6]: 19 nM | IC50 [7]: 65 nM | -log (IC50) [8]: 7.72 | IC50 [8]: 19 nM | -log (IC50) [9]: 7.18 | IC50 [9]: 65 nM | IC50 [10]: 0.086 nM | IC50 [11]: 4.2 nM | -log (IC50) [12]: 10.1 | IC50 [12]: 0.086 nM | -log (IC50) [13]: 8.37 | IC50 [13]: 4.2 nM
B1: B5 (peptide)
peptide: SVSEIQLMHNLGKHLNSMERVEWLRKKLQDVQNF-NH2
modifications: not fully specified (residues 20, 24, 28, 32); printed as SVSEIQLMHNLGKHLNSMERVEWLRKKLQDVQNF-NH2; also: five β3 residues, positions not given here in text
notes: also called α/β-peptide B5

cAMP EC50 [1]: 0.13 nM | cAMP Max [1]: 0.87 relative to PTH(1-34) | cAMP EC50 [2]: 0.33 nM | cAMP Max [2]: 0.76 relative to PTH(1-34) | Fold PTH(1-34) [3]: 0.76 fold | cAMP EC50 [3]: 0.13 nM | cAMP Max [3]: 189 cps × 10^-3 | cAMP pEC50 [3]: 9.89 | Fold PTH(1-34) [4]: 0.79 fold | cAMP EC50 [4]: 0.33 nM | cAMP Max [4]: 50 cps × 10-3 | cAMP pEC50 [4]: 9.48 | Fold PTH [14]: 2.1 fold | cAMP EC50 [14]: 0.17 nM | AUC Ratio [5]: 1.5 | AUC-on [5]: 100000 | AUC-washout [5]: 130000 | cAMP response PTH1R/PTH2R [15]: 33 ratio | R^0/RG [16]: 31 ratio | R^0/RG [17]: 8 ratio | IC50 [6]: 2 nM | IC50 [7]: 6.1 nM | -log (IC50) [8]: 8.69 | IC50 [8]: 2 nM | -log (IC50) [9]: 8.22 | IC50 [9]: 6.1 nM | IC50 [10]: 0.065 nM | IC50 [11]: 0.81 nM | -log (IC50) [12]: 10.2 | IC50 [12]: 0.065 nM | -log (IC50) [13]: 9.09 | IC50 [13]: 0.81 nM
Binder: SVSEIQLMHNLGK[β3hW]LNS[β3hM]ERV[β3hE]WLR[β3hK]KLQ[β3hD]VHN[β3hF]-NH2 (also called α/β-peptide D6) [D6]

From patent US20140378382A1 (WISCONSIN ALUMNI RESEARCH FOUNDATION, published 2014)
